B1: TPR t1 (parent)
chain: GACCAAUCUGCCCUCAGAGCUCGAGAACAUCUUCGGAUGCAGAGGAGGCAGGCUUCGGUGGCGCGAUAGCGCCAACGUCCUCAACCUCCAAUGCAUCCCACCACAUGAUGAUGCCUGAAGAGCCUUGGUUUUUUG

Variants of: B1
Assay: polymerase ribozyme fitness, log enrichment relative to wild type (log ratio); higher = more active; in vitro selection for triplet polymerase activity
Method in brief: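 To select mutant libraries of each subunit of a heterodimeric triplet polymerase ribozyme, built by PCR and transcribed, each was annealed with a biotinylated primer, partner subunit and triplets, then incubated frozen at −7 °C. Extended constructs were gel-excised, captured on streptavidin beads and amplified by RT-PCR, in one round carried out in triplicate. Illumina sequencing of input and output libraries kept genotypes with ≥10 input reads and ≥1 read per output. Fitness is the base-2 logarithm of genotype enrichment relative to wild-type enrichment, from inverse-variance-weighted replicate averages.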

Variant	polymerase ribozyme fitness (log ratio)
C15U C79G C98U	-4.8
C15A G48C	-3.05
C15U A50U G63C C89U	-3.78
U14G C34A G117A	-4.56
C15U A18G A37G U54A A100U C115A	-5.29
C15A C20A G107A A121G	-5.21
C15U A41U	-2.32
C15A G44A G45U G48U C62U C73U U78G	-5.47
C15G G44C G57U	-3.85
C15G A37C A46U C53A C56G	-4.78
C15A C28G G36A C40U G110C U112C C115A G117U G120A	-3.11
C15A G19A A50C A74G C102A C104A A121U U125G	-6.51
C15G A18U	-3.36
C15U A41C G48A C53U C56U C124U	-1.63
C13U U59A U81C	-0.938
C15A U32C G71C	-2.71
C15G G61C A119G	-0.591
C13U C98A C115U	-5.17
U14C A26C C70U U78A A83U U109G U112A	-6.59
C13U G42U	-1.12
C13U C40A G61A	-0.491

Variant	polymerase ribozyme fitness (log ratio)
C13U C56U G60C C73A	-0.677
C15G C98G G120A C123A C124A	-6.86
C15A G52A G61U C88A A95C U112C C124U	-1.64
C13U G17U	-2.37
C13U C104A	-1.47
U14C C20A C114U G128U	-5.92
C15U C86U C102A	-4.01
U14G A46G G71C G120A	-0.69
C13U C34A G71C A121U	-2.27
C15G A83U C115G C123A	-5.38
U14C A18G G63A U78C G117U	-5.13
C15G A18U C70U U116A G120U	-1.19
C13U C72G C85G C123U	-0.494
U14A A74G G117U	-4.7
C13U G63U A90U G117C	-5.21
C15G C70U	-3.1
C15A A111G	-2.08
U14A G36U C40G C56A A84G C97A	-7.86
C15G G57A	-4.5
U14G C70G U116G U125A	-5.32
C15U A37G G71A C80U A118U U133A	-4.3

Variant	polymerase ribozyme fitness (log ratio)
C13U G35U	-3.47
C13U G35A G48A U59C C86U G120U	-5.19
U14C A75G	-1.81
U14A C56A C62U	-2.93
U14C G45A G122A	-3.73
U14A G52C C102U U106C C124G	-1.75
C13U C102A	-2.14
C13U C40A C82A C89A	-2.38
C15A C20U U109A	-5.4
U14C C31G U33G G65U A95U G117U	-7.34
U14A A46C G69A C101U G110U U126A	-6.24
C13U G45U C56G U87A	-3.44
U14A U125A	-2.3
U14A U125G	-3.25
U14C C72A	-0.983
U14G C20G G44U G117C	-6.5
C15G U32C A43G G45U C89G	-4.49
C15A A68G C97A A103G	-6.8
C15G G63U	-3.98
C15G G63A	-3.35
C15U C56A G69C U78C A83G U112C U116A	-6.66

Variant	polymerase ribozyme fitness (log ratio)
C13U C73U	-0.351
U14A A46C U112A A119G G122C	-0.328
C13U U32C G93C A95G	-1.09
U14G G69C	-3.2
U14A C79U G117U	-5.29
C13U C82U A83G A118U	-1.83
C15U C76G G77C C123A	-2.59
C15A C82G G117C G120C	-5.78
C13U U96A	-1.11
U14A G63A U125A	-2.94
C15G C101U	-2.56
C15G C101A	-3.78
C13U C56G	0.205
C13U G63C	-0.36
C13U G63U	-0.742
C15G C94A	-3.63
C13U G135U	-0.441
C15G C114U	-4.3
C13U C40U A43G G52U G58C A91C	-2.35
C15A C56U	-1.71
C15A C56A	-0.645
